{"source": "patent US12605469B2", "about": "“Tumor specific antibody conjugates and uses therefor” (The University of North Carolina at Charlotte, priority 2019, dated 2026)", "molecules": {"B1": {"name": "TAB-004: mAb of the IgG isotype produced by hybridoma ATCC PTA-11550; binds tumor-specific epitope of human MUC1 (antibody, V domains shown)", "VH": "EVQLQQSGGERATPGASVKMSCKTSGYTFTNYWMHWVKQRPGQGLEWIGYINPSSGYTQYNQKFKDKATLTADKSSSTAYIQLSSLTSEDSAVYYCSTYYGDYLFPYWGQGTLVTVSA", "VL": "DVLMTQTPLSLPVSLGDQASISCRSSQDIVYGNGNTYLEWYLQKPGQSPKLLIYKVSNRFSGVPDRFSGSGSGTDFTLKISRVEAEDLGVYYCFQGSHVPYTFGGGTKLEIKR"}}, "key": {"[1]": {"target": "tumor-specific form of MUC1 (tMUC) (Homo sapiens, UniProt P15941)", "sequence (P15941 24-1255)": "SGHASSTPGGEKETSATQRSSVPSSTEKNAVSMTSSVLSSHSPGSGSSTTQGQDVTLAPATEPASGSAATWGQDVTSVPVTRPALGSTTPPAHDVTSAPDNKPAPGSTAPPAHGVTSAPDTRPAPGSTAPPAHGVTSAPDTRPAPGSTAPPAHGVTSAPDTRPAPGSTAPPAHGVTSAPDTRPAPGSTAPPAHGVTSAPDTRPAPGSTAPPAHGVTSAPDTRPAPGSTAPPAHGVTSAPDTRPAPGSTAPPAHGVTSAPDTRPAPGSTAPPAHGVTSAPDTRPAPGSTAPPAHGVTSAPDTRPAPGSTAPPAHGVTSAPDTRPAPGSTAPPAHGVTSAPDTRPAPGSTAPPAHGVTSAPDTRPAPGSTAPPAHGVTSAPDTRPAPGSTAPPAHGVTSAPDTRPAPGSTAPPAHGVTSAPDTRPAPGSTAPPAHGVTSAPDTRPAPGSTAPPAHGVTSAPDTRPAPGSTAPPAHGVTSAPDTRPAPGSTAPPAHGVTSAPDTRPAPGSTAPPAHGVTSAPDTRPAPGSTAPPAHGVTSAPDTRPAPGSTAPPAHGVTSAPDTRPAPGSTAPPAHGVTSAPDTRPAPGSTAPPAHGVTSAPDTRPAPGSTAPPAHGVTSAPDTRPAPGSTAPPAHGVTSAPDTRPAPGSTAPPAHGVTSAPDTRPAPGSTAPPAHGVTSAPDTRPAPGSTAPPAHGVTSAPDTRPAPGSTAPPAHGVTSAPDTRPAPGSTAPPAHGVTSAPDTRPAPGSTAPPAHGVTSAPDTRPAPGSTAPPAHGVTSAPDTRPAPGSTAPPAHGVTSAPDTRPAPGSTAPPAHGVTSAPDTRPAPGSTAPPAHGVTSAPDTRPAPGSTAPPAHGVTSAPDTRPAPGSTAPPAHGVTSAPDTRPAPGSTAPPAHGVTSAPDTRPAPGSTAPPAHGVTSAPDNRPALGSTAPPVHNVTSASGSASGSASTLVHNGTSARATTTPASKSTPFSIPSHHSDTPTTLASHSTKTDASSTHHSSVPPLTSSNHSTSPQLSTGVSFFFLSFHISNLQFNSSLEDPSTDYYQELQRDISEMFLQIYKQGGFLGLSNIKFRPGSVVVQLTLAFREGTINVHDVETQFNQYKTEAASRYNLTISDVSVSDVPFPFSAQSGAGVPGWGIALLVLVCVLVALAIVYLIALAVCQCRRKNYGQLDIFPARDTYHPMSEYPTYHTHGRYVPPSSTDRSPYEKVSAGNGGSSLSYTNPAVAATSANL", "conditions": "cited from earlier work"}, "shed MUC1": {"target": "T1, shed MUC1 (Homo sapiens, UniProt P15941)", "T1 construct": "from tissue; host or cells: human plasma, diluted 1:2 and 1:10", "T1 sequence (P15941 24-1097 limits assumed)": "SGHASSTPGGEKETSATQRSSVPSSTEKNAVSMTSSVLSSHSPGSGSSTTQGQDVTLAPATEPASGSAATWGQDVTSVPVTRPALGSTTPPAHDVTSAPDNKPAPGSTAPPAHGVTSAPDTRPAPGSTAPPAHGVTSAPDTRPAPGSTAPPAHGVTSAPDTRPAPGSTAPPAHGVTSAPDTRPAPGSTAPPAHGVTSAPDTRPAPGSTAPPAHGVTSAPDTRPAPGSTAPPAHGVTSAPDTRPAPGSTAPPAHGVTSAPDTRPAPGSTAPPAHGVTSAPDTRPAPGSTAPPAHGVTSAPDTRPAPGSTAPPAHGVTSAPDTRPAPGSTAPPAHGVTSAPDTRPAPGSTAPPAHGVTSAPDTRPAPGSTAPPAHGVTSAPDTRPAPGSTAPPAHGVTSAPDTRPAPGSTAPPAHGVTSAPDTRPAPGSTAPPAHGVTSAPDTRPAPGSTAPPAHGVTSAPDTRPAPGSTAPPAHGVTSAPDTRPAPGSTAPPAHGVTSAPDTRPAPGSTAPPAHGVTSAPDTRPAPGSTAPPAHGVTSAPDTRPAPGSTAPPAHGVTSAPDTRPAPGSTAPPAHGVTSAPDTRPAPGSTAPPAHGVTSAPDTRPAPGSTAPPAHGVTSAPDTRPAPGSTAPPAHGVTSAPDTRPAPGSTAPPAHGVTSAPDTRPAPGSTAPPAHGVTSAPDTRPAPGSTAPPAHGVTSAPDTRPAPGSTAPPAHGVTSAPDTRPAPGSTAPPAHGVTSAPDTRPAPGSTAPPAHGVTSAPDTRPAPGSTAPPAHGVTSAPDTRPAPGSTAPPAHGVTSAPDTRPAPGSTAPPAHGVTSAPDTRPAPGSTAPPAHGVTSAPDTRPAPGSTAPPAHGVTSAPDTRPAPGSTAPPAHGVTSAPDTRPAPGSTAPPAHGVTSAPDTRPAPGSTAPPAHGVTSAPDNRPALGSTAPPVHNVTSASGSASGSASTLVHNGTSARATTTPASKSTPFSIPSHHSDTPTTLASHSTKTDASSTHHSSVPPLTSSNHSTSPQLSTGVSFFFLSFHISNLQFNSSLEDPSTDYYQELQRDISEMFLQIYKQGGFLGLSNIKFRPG", "assay": "enzyme immunoassay (EIA) for shed MUC1 in plasma", "experimental": "To that end, the ability of TAB-004 to detect levels of shed MUC1 in the plasma of patients was compared to the performances of these antibodies in plasma samples. An enzyme immunoassay (EIA) has been optimized using the TAB-004 antibody to capture and detect levels of shed MUC1 present in circulation. Briefly, a 96-well ELISA plate was coated with 100 μl of TAB-004 antibody at 50 μg/mL in PBS and incubated overnight at 4° C. Following incubation, excess TAB-004 capture antibody was removed from the plate. The plate was blocked with 200 μl of 1% dry milk in PBS to avoid non-specific binding and incubated for 1 hour at 4° C. The plates were washed extensively (3 times) with 250 μl PBS containing 0.05% (v/v) TWEEN®-20 using an ELISA plate washer. A MUC1 standard using a 25-mer polypeptide preparation from MUC1 TR was prepared ranging from 0-2000 U/ml. The test plasma was diluted 1:2, and 1:10 in 0.1% milk in PBS, and 100 μl was added to the appropriate wells in triplicate, and the plates were incubated for 2 hours at 37° C.\nPlates were then washed and 100 μl of a polyclonal rabbit anti-MUC1 antibody (Genway) were added at 1:300,000 dilution in 0.1% milk in PBS to each well, and the plate was incubated for 1 hour at 37° C. The polyclonal antibody was washed from the wells and horse radish peroxidase-labeled goat anti-rabbit IgG was added at a 1:1,000 dilution in 0.1% milk in PBS and incubated at 37° C. for 1 hour. After washing the plates, 100 μL of a solution consisting of peroxidase substrate (TMB) was added to the wells, and the plates incubated at room temperature for 30 minutes in the dark. The reaction was stopped by the addition of 25 μl of 4.0 N sulfuric acid, and the optical density read at a wavelength of 450 nm using a SPECTRA-MAX 250 spectrophotometer. Standard curves were generated with regression analyses to determine concentrations of the unknown samples.\nArbitrary units (U)/ml were chosen based on an initial reference standard of MUC1. A linear range was determined to be 50-800 units/ml of MUC1 antigen. […]"}, "[2]": {"tested_on": "orthotopic tumors (PyVMT, PyVMT.MUC1, HCC-70, and AU565)", "assay": "IVIS imaging of TAB-004-ICG in Nu-J nude mice with orthotopic tumors", "format": "in vivo, mouse", "conditions": "ICG-conjugated", "experimental": "FIGS. 18A-18D are a series of fluorescent images showing specific homimg of the ICG-tagged TAB-004 antibody to tumor sites in mice bearing PyV MT tumors (MUC1 null negative control; FIG. 18A), PyV MT.MUC1 tumors (MMT, MUC1+ positive control; FIG. 18B), HCC70 cell triple negative breast cancer (TNBC) tumors (MUC1+; FIG. 18C), and AU565 TNBC cell tumors (MUC1+; […]) imaged 4 hours post-injection with antibody. Imaging was repeated as tumors progressed (indicated as days post tumor challenge). […] Each of FIGS. 18A-18D is accompanied by a graph showing the growth of the tumor from 7-21 days (FIGS. 18A and 18B) or from 7 to 54 days (FIGS. 18C and 18D).\nTo test if TAB-004 can specifically reach TNBC tumors in vivo in mice, orthotopic tumors (PyVMT, PyVMT.MUC1, HCC-70, and AU565) were produced in the mammary fat pad of mice. Nu-J nude mice (8-week old) were injected with 10×10^6 cells in the lower right inquinal area of the mammary fat pad. When tumors were palpable, mice were injected retroorbitally with 12.5 μgs of TAB-004-directly conjugated to Indocyanine green (ICG) and imaged 4 hours post antibody injection. […] A negative breast cancer cell line that is null for human MUC1 was used as control to test specificity (PyVMT; see FIG. 18A)."}}}
{"molecule": "B1", "values": [{"measurement": "binding affinity", "setting": "[1]", "value": 3, "unit": "ng/mL"}, {"measurement": "binding to unrelated antigens", "setting": "[1]", "value": "does not bind unrelated antigens"}, {"measurement": "Kd", "setting": "[1]; read-out: binding affinity", "value": 0.02, "unit": "nM"}, {"measurement": "false negatives / positivity of cancer patient plasma", "setting": "shed MUC1; 36 breast cancer plasma samples for CA15-3", "value": "All cancer patient plasma was positive"}, {"measurement": "stage 2 and stage 3 pancreatic cancer patients above the normal range", "setting": "shed MUC1; n=5 per stage", "value": "all stage 2 and stage 3 patients"}, {"measurement": "false positive results in normal patients", "setting": "shed MUC1; n=12 normal, cutoff <40 U/ml TAB-004, <31 U/ml CA15-3", "value": "no false positives"}, {"measurement": "earliest specific localization to tumor sites, human cell lines", "setting": "[2]; HCC70 and AU565, days post tumor challenge", "value": 21, "unit": "days"}, {"measurement": "earliest specific localization to tumor sites, PyVMT.MUC1 tumors", "setting": "[2]; days post tumor challenge", "value": 11, "unit": "days"}]}
